The results in this text go back to publication PMC3567243 (Molecular Microbiology, 2012).

In the data set the test system is CC1=CC(=O)c2ccccc2C1=O. Description: purified protein.

By Km is commonly meant the concentration of substrate that gives half-maximal velocity. The term kcat/Km denotes the turnover number divided by the Michaelis constant. (Mycobacterium tuberculosis H37Rv): the Km was 17.29 ± 11.63 µM and the kcat/Km was 94500 M⁻¹ s⁻¹.
